In the supplement of paper PMC10567573:
± gives the standard deviation.

Assay: protein stability index of a GFP-peptide fusion (GPS, HEK-293T) (PSI 1-6); higher = more stable
Details: c terminus: a fixed tail appended
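Also: 24-mer peptide tiles fused after GFP, lentivirally expressed, FACS-sorted into six equal bins by GFP/DsRed ratio, decoded by Illumina sequencing, PSI is the read-weighted mean bin number.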

Sequence	protein stability index (treatment: DMSO)	protein stability index (treatment: MLN4924 1 uM, 8 h)
DFKEDLKKFRTKSRTWAGEKSKRE [CDC25A]	4.88 ± 0.52	4.92 ± 0.15
DFLAVLSDYPSPDISPPIFRRGEK [SLA]	2.63 ± 0.18	2.75 ± 0.51
DGKSLVSVTKEGLELPEDEEEKKK [HSP90AB1]	5.61 ± 0.2	5.44 ± 0.3
DGLKRRQQLEEELLRAKIEVEKLK [RAD54B]	4.67 ± 0.31	4.85 ± 0.32
DGNKDVYLSLLRMYLSPPSIHCLG [VPS39]	2.94 ± 0.57	2.72 ± 0.33
DGSLILVSASRDKTLRVWDLKDDG [WSB1]	2.74 ± 0.31	3.03 ± 0.21
DGSVRIWELREKQQLAAEPVPTGF [WDR41]	3.87 ± 0.16	3.72 ± 0.32
DHQTLLSAAHEVELQRQKEAEKLE [NOP53]	5.46 ± 0.15	5.42 ± 0.38
DHSEHLSGSSYRDALQRYGTSHGA [RBMY1A1]	3.89 ± 0.12	4.37 ± 0.38
DHSGFISLDEFRQTWKLFSSHMNI [PPEF2]	2.29 ± 0.26	2.08 ± 0.36
DIEDVFYKYGAIRDIDLKNRRGGP [SRSF1]	3.32 ± 0.48	3.39 ± 0.17
DINNNFPDLNTLLWEAEDRQNVPR [CPXM2]	3.78 ± 0.35	4.15 ± 0.2
DIRLTLMEEVLLLGLKDKEGYTSF [GOLPH3L]	2.26 ± 0.44	2.2 ± 0.55
DKSPSTVRDQGPSIPLTPGDTPIR [FBF1]	5.08 ± 0.18	5.26 ± 0.18
DLNRHLDEMCANNDFVQVDPGQVG [FAN1]	4.29 ± 0.4	4.63 ± 0.058
DLPWFRTLSWYFLLCVNYFFYGET [CDS2]	3.95 ± 0.26	3.23 ± 0.97
DLSAANEKNLLLQNQVDELERKFR [LRRC45]	3.96 ± 0.38	4.08 ± 0.62
DMWRSENQNRAYVTLAAHFLGLGA [ZBED1]	2.13 ± 0.24	2.01 ± 0.4

Sequence	protein stability index (treatment: DMSO)	protein stability index (treatment: MLN4924 1 uM, 8 h)
DNIREAFQIYDKEASGYVDRDMFF [EFHC1]	3.5 ± 0.29	3.42 ± 0.18
DPDGKKIKQIQQLFEEILSNSRQL [FBXO33]	2.54 ± 0.41	2.77 ± 0.24
DPLTYKSRLMVVVKMDSSIQPGPF [RHOBTB2]	2.05 ± 0.53	2.08 ± 0.25
DPRVQDFLQRCLESPFSRKLDLWS [NET1]	2.34 ± 0.25	2.27 ± 0.25
DPRYELPSRKYISTKAIPEKYGAV [ZBED1]	3.55 ± 0.18	3.55 ± 0.19
DPSKLDSGKELKIDIIPNPQERTL [HSP90AB1]	5.15 ± 0.11	5.31 ± 0.078
DPTQRILYRDVMLETFGHLLSIGP [ZNF8]	2.21 ± 0.23	2.25 ± 0.22
DPYLSYRWKRRRSYSREHEGRLRY [CLK3]	3.54 ± 0.33	3.57 ± 0.56
DQDGEYCPEVKLKTTGLEEAAEAE [SRPK2]	5.63 ± 0.3	5.81 ± 0.18
DQFIPIWTVANMEEIKKLTTDPDL [LARP4]	3.97 ± 0.12	3.82 ± 0.42
DRLWRPSKVLSLQDLCCRAVVSCT [RAB40B]	3.01 ± 0.17	2.8 ± 0.21
DSDEATAARLLFNMAGVTFRKFIP [DCTD]	2.55 ± 0.19	2.58 ± 0.59
DSEEEVIERANNVKYGLAATVWSS [ALDH8A1]	4.03 ± 0.17	4.15 ± 0.17
DSNSGCLGDTQFCFRFRQSSGRRV [DENND6A]	3.24 ± 0.35	3.06 ± 0.52
DSQAPAGSLDLVPGGLTLEEHSLE [SPDEF]	5.36 ± 0.21	5.45 ± 0.33
DSVKVALLETNPYLLALTIIVSIV [CLPTM1]	2.08 ± 0.28	2.3 ± 0.14
DTFHQDNQPSGLIRTYLGRSPLVS [RHOBTB3]	3.24 ± 0.1	3.24 ± 0.16
DTVFRFDPRYNKWMQVASLNEKRT [KLHL13]	2.87 ± 0.41	3.14 ± 0.41
